From the supplement of paper PMC11908140

B1: library; numbered along this chain (parent)
chain: MRKPRAAVGSGHRKQAASQEGRQKHAKNNSQAKPSACDGLARQPEEVVLQASVSSYHLFRDVAEVTAFRGSLLSWYDQEKRDLPWRRRAEDEMDLDRRAYAVWVSEVMLQQTQVATVINYYTGWMQKWPTLQDLASASLEEVNQLWAGLGYYSRGRRLQEGARKVVEELGGHMPRTAETLQQLLPGVGRYTAGAIASIAFGQATGVVDGNVARVLCRVRAIGADPSSTLVSQQLWGLAQQLVDPARPGDFNQAAMELGATVCTPQRPLCSQCPVESLCRARQRVEQEQLLASGSLSGSPDVEECAPNTGQCHLCLPPSEPWDQTLGVVNFPRKASRKPPREESSATCVLEQPGALGAQILLVQRPNSGLLAGLWEFPSVTWEPSEQLQRKALLQELQRWAGPLPATHLRHLGEVVHTFSHIKLTYQVYGLALEGQTPVTTVPPGARWLTQEEFHTAAVSTAMKKVFRVYQGQQPGTCMGSKRSQVSSPCSRKKPRMGQQVLDNFFRSHISTDAHSLNSAAQ

Variants of: B1
Assay: 8OG:A repair function score (normalized; synonymous = 0, nonsense = -1) (normalized log-likelihood score); higher = more repair activity (WT-like)
Conditions: with 8OG:A DNA repair reporter (GFP) in HEK-293 MUTYH KO cells
Procedure, shortened: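 After 72 h, viable mCherry+ cells were split into GFP+ (repair) and GFP− bins in three replicates per tile. These cells were MUTYH knockout HEK-293 cells holding lentiviral MUTYH cDNA NNN codon-scan libraries, kept in 10 pg/ml doxycycline and co-transfected with mCherry plus an 8OG:A GFP repair reporter. Sequencing of tile amplicons gave per-tile Rosace fitness scores, normalized into a repair function score anchored on synonymous and nonsense distributions. Synonymous medians were fixed at 0, nonsense at -1, and variants under 300 counts per million at the start were removed.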
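Note: cells sorted at 72 h after reporter transfection.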

In order of falling “8OG:A repair function score” value:
1. MRKPRAAVGSGHRKQAASQEGRQKHAKNNSQAKPSACDGLARQPEEVVLQASVSSYHLFRDVAEVTAFRGSLLSWYDQEKRDLPWRRRAEDEVDLDRRAYAVWVSEVMLQQTQVATVINYYTGWMQKWPTLQDLASASLEEVNQLWAGLGYYSRGRRLQEGARKVVEELGGHMPRTAETLQQLLPGVGRYTAGAIASIAFGQATGVVDGNVARVLCRVRAIGADPSSTLVSQQLWGLAQQLVDPARPGDFNQAAMELGATVCTPQRPLCSQCPVESLCRARQRVEQEQLLASGSLSGSPDVEECAPNTGQCHLCLPPSEPWDQTLGVVNFPRKASRKPPREESSATCVLEQPGALGAQILLVQRPNSGLLAGLWEFPSVTWEPSEQLQRKALLQELQRWAGPLPATHLRHLGEVVHTFSHIKLTYQVYGLALEGQTPVTTVPPGARWLTQEEFHTAAVSTAMKKVFRVYQGQQPGTCMGSKRSQVSSPCSRKKPRMGQQVLDNFFRSHISTDAHSLNSAAQ [M93V]  0.00114
2. MRKPRAAVGSGHRKQAASQEGRQKHAKNNSQAKPSACDGLARQPEEVVLQASVSSYHLFRDVAEVTAFRGSLLSWYDQEKRDLPWRRRAEDEMDLDRRAYAVWVSEVMLQQTQVATVINYYTGWMQKWPTLQDLASASLEEVNQLWAGLGYYSRGRRLQEGARKVVEELGGHMPRTAETLQQLLPGVGRYTAGAIASIAFGQATGVVDGNVARVLCRVRAIGADPSSTLVSQQLWGLAQQLVDPARPGDFNQAAMELGATVCTPQRPLCSQCPVESLCRARQRVEQEQLLASGSLSGSPDVEECAPNTGQCHLCLPPSEPWDQTLGVVNFPRHASRKPPREESSATCVLEQPGALGAQILLVQRPNSGLLAGLWEFPSVTWEPSEQLQRKALLQELQRWAGPLPATHLRHLGEVVHTFSHIKLTYQVYGLALEGQTPVTTVPPGARWLTQEEFHTAAVSTAMKKVFRVYQGQQPGTCMGSKRSQVSSPCSRKKPRMGQQVLDNFFRSHISTDAHSLNSAAQ [K333H]  -0.0128
3. MRKPRAAVGSGHRKQAASQEGRQKHAKNNSQAKPSACDGLARQPEEVVLQASVSSYHLFRDVAEVTAFRGSLLSWYDQEKRDLPWRRRAEDEMDLDRRAYAVWVSEVMLQQTQVATVINYYTGWMQKWPTLQDLASASLEEVNQLWAGLGYYSRGRRLQEGARKVVEELGGHMPRTAETLQQLLPGVGRYTAGAIASIAFGQATGVVDGNVARVLCRVRAIGADPSSTLVSQQLWGLAQQLVDPARPGDFNQAAMELGATVCTPQRPLCSQCPVESLCRARQRVEQEQLLASGSLSGSPDVEECAPNTGQCHLCLPPSEPWDQTLGVVNFPRKASRKPPREESSATCVLEQPGALGAQILLVQRPNSGLLAGLWEFPSVTWEPSEQLQRKALLQELQRWAGPLPATHLRHLGEVVHTFSHIKLTYQVYGLALEGQTPVTTVPPGARWLTQEEFHTAAVSTAMKKVFNVYQGQQPGTCMGSKRSQVSSPCSRKKPRMGQQVLDNFFRSHISTDAHSLNSAAQ [R467N]  -0.0631
4. MRKPRAAVGSGHRKQAASQEGRQKHAKNNSQAKPSACDGLARQPEEVVLQASVSSYHLFRDVAEVTAFRGSLLSWYDQEKRDLPWRRRAEDEMDLDRRAYAVWVSEVMLQQTQVATVINYYTGWMQKWPTLQDLASASLEEVNQLWAGLGYYSRGRRLQEGARKVVEELGGHMPRTAETLQQLLPGVGRYTAGAIASIAFGQATGVVDGNVARVLCRVRAIGADPSSTLVSQQLWGLAQQLVDPARPGDFNQAAMELGATVCTPQRPLCSQCPVESLCRARQRVEQEQLLASGSLSGSPDVEECAPNTGQCHLCLPPSEPWDQTLGVVNFPRKASRKPPREESSATCVLEQPGALGAQILLVQRPNSGLLAGLWEFPSVTWEPSEQLQRKALLQELQRWAGPLPATHLRHLGEVVHTFSHIKLTYQVYGLALEGQTPVTTVPPGARWLTQEEFHTLAVSTAMKKVFRVYQGQQPGTCMGSKRSQVSSPCSRKKPRMGQQVLDNFFRSHISTDAHSLNSAAQ [A456L]  -0.287
5. MRKPRAAVGSGHRKQAASQEGRQKHAKNNSQAKPSACDGLARQPEEVVLQASVSSYHLFRDVAEVTAFRGSLLSWYDQEKRDLPWRRRAEDEMDLDRRAYAVWVSEVMLQQTQVATVINYYTGWMQKWPTLQDLASASLEEVNQLWAGLGYYSRGRRLQEGARKVVEELGGHMPRTAETLQQLLPGVGRYTAGAIASIAFGQATGVVDGNVARVLCRVRAIGADPSSTLVSQQLWGLAQQLVDPARPQDFNQAAMELGATVCTPQRPLCSQCPVESLCRARQRVEQEQLLASGSLSGSPDVEECAPNTGQCHLCLPPSEPWDQTLGVVNFPRKASRKPPREESSATCVLEQPGALGAQILLVQRPNSGLLAGLWEFPSVTWEPSEQLQRKALLQELQRWAGPLPATHLRHLGEVVHTFSHIKLTYQVYGLALEGQTPVTTVPPGARWLTQEEFHTAAVSTAMKKVFRVYQGQQPGTCMGSKRSQVSSPCSRKKPRMGQQVLDNFFRSHISTDAHSLNSAAQ [G248Q]  -0.882
6. MRKPRAAVGSGHRKQAASQEGRQKHAKNNSQAKPSACDGLARQPEEVVLQASVSSYHLFRDVAEVTAFRGSLLSWYDQEKRDLPWRRRAEDEMDLDRRAYAVWVSEVMLQQTQVATVINYYTGWMQKWPTLQDLASASLEEVNQLWAGLGYYSRGRRLQEGARKVVEELGGHMPRTAETLQQLLPGVGRYTAGAIASIAFGQATGVVDGNVARVLCRVRAIGADPSSTLVSQQLWGLAQQLVDPARPGDFNQAAMLLGATVCTPQRPLCSQCPVESLCRARQRVEQEQLLASGSLSGSPDVEECAPNTGQCHLCLPPSEPWDQTLGVVNFPRKASRKPPREESSATCVLEQPGALGAQILLVQRPNSGLLAGLWEFPSVTWEPSEQLQRKALLQELQRWAGPLPATHLRHLGEVVHTFSHIKLTYQVYGLALEGQTPVTTVPPGARWLTQEEFHTAAVSTAMKKVFRVYQGQQPGTCMGSKRSQVSSPCSRKKPRMGQQVLDNFFRSHISTDAHSLNSAAQ [E256L]  -0.906
